{
  "source": "patent US12497446B2",
  "about": "“Tetranectin-targeting monoclonal antibodies to fight against lethal sepsis and other pathologies” (The Feinstein Institutes For Medical Research, priority 2019, dated 2025)",
  "key": {"[1]": {"test_system": "Murine macrophage-like RAW 264.7 cells", "assay": "Cellular HMGB1 and TN uptake", "type": "cell-based, mouse", "conditions": "2 h", "method": "Highly purified recombinant HMGB1 and TN protein were labeled with either Alexa Fluor 555 or Alexa Fluor 488 using respective labeling kit (Cat. # A30007 or Cat. # A30006, Thermo Fisher Scientific) according to the manufacturer's instructions. Murine macrophage-like RAW 264.7 cells on cover slips were incubated with unlabeled or Alexa Fluor 555-labeled HMGB1 in the absence or presence of unlabeled or Alexa Fluor 488-labeled TN at 37° C. for 2 h. An endocytosis inhibitor, Dynasore (8.0 μM), or mAb8 (60 μg/ml) were added 30 min before the addition of HMGB1 or TN. Following extensive washings with 1×PBS, cells were fixed with 4% formalin for 20 min at room temperature and mounted on the slide using Vectashield Mounting Medium for Fluorescence with DAPI (Vector Laboratories, Inc., Cat. # H-1200) for nuclei staining (blue). Endocytic uptake of Alexa Fluor 555-labeled HMGB1 (red) or Alexa Fluor 488-labeled TN (green) was visualized via Carl Zeiss fluorescence microscope. To quantitate cellular uptake of HMGB1 and TN, macrophage cultures were incubated with recombinant HMGB1 and TN either individually, or in combination, at 37° C. for 2 h. Following extensive washing, cellular levels of HMGB1 and TN were measured by Western blotting analysis with reference to a house-keeping protein, β-actin."}, "[2]": {"test_system": "murine peritoneal macrophages", "assay": "TN/HMGB1-induced macrophage cell death (trypan blue, LDH release)", "type": "cell-based, mouse", "conditions": "dynasore 10.0 μM, 16 h", "method": "(§1) FIG. 12(A)-12(C): TN and HMGB1 cooperate to induce macrophage cell death. 12(A) Thioglycolate-elicited murine peritoneal macrophages were treated with TN (10 μg/ml) in the absence or presence of HMGB1 (0.5 μg/ml), TN-specific mAb8 (65.0 μg/ml), or dynasore (10.0 μM) for 16 h, and cell viability was assessed by trypan blue dye exclusion or LDH release assay. *, P<0.05 versus negative control; #, P<0.05 versus “+TN” or “+HMGB1” alone; &, P<0.05 versus positive control “+TN+HMGB1” group, n=6-10 per group. 12(B) Murine peritoneal macrophages were stimulated with TN (10 μg/ml) in the absence or presence of HMGB1 (1.0 μg/ml) for 16 h, and the cell-conditioned medium was assayed for ASC release by Western blotting analysis. SDS-PAGE gel indicated equivalent sampling loading. Bar graph represented average of three samples (n=3) from two independent experiments (N=2). *, P<0.05 versus negative controls (“−HMGB1−TN”); #, P<0.05 versus positive control (“+HMGB1” or “+TN” alone). 12(C) Differentiated human macrophages were stimulated with HMGB1 (1.0 μg/ml) and TN (10.0 μg/ml) in the absence or presence of TN-specific mAb (40 μg/ml) or dynasore (20.0 μM) for 16 h. Subsequently, cells were immunostained with Alexa Fluor 594-conjugated anti-ASC IgGs. Scale bars: 10 μm. Narrow arrows point to minute ASC puncta; Wide arrow points to a larger ASC speck. […]"}, "[3]": {"test_system": "differentiated human macrophages", "assay": "TN/HMGB1-induced formation of ASC foci/speck", "type": "cell-based", "conditions": "dynasore 20.0 μM, 16 h", "method": "as §1"}, "HMGB1": {"molecular_target": "T1, HMGB1 (Rattus norvegicus, UniProt P63159)", "T1 construct": "made in house; host or cells: E. coli BL21 (DE3) pLysS", "T1 sequence (P63159 1-215)": "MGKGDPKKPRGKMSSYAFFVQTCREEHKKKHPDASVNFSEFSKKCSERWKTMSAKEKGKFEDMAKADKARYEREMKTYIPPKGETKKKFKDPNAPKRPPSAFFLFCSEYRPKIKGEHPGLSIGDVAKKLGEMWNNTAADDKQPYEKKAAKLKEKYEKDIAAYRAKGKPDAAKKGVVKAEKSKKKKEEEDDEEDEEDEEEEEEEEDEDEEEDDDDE", "assay": "OpenSPR assay of TN/HMGB1 interaction", "type": "binding", "conditions": "TN or HMGB1 conjugated to the sensor chip", "description": "The cDNA encoding for rat HMGB1 was cloned onto a pCAL-n vector, and the recombinant CBP-HMGB1 (rHMGB1) was expressed in E. coli BL21 (DE3) pLysS cells as previously described. Recombinant HMGB1 containing a ˜3 kDa calmodulin-binding peptide tag (CBP-HMGB1 fusion protein, 33 kDa) was expressed in E. coli, and purified to remove contaminating endotoxin by Triton X-114 extraction as previously described. Recombinant human TN corresponding to residue 22-202 amino acid (without the 21-amino acid leader signal sequence) with a C-terminal histidine tag were expressed in E. coli BL21 (DE3) pLysS cells and purified by histidine-affinity and Triton X-114 extraction to remove contaminating endotoxins. Recombinant TN and HMGB1 proteins were tested for LPS content by the chromogenic Limulus amebocyte lysate assay (Endochrome; Charles River), and the endotoxin content was less than 0.01 U per microgram of recombinant proteins.\nWe employed the Nicoya Lifesciences gold-nanoparticle-based Open Surface Plasmon Resonance (OpenSPR) technology (Kitchener, ON, Canada) to characterize protein-protein interactions following the manufacturer's instructions. […] The response units were recorded over time, and the binding affinity was estimated as the equilibrium dissociation constant KD using the Trace Drawer Kinetic Data Analysis v.1.6.1. […]"}, "[4]": {"test_system": "Balb/C mice subjected to CLP sepsis", "assay": "Sepsis-induced tissue injury (lung histology, serum liver enzymes) after CLP", "type": "in vivo, mouse", "conditions": "TN supplementation, 2 and 24 h post CLP"}, "[5]": {"test_system": "murine peritoneal macrophages", "assay": "LPS- or SAA-induced HMGB1 release in murine macrophages", "type": "cell-based, mouse", "conditions": "16 h", "method": "(§2) Primary peritoneal macrophages were isolated from young male Balb/c (7-8 wks, 20-25 g) at 3 days after intraperitoneal injection of 2 ml thioglycollate broth (4%) as previously described. Briefly, mice were sacrificed by CO2 asphyxiation, and the abdomen region was immediately cleaned with 70% ethanol before making a small excision to expose the abdominal wall, and to insert a catheter into viscera-free pocket to wash out peritoneal macrophages with sucrose solution (11.6%, 7.0 ml). […] The intracellular and extracellular levels of HMGB1, TN, or various other cytokines/chemokines were respectively determined by Western blotting analysis, and Cytokine Antibody Arrays as previous described.\n(§3) The levels of TN in human or murine serum were determined by Western blotting analysis using commercial rabbit mAb against the C-terminus of human TN (Abcam) or our home-made murine mAbs (mAb8) against recombinant human TN. Similarly, the cellular and extracellular levels of TN and HMGB1 in murine macrophage and human monocyte cultures were determined by Western blotting analysis using rabbit polyclonal or monoclonal antibodies. […] The relative band intensity was quantified using the UN-SCAN-IT Gel Analysis Software Version 7.1 (Silk Scientific Inc., Orem, UT, USA)."}, "human blood monocytes": {"test_system": "human blood monocytes", "assay": "LPS- or SAA-induced HMGB1 release in human monocytes", "type": "cell-based", "conditions": "16 h", "method": "as §2, §3"}, "macrophage cultures": {"test_system": "macrophage cultures", "assay": "Cytokine Antibody Array of macrophage cultures", "type": "cell-based, mouse", "conditions": "even at 20 μg/ml", "method": "(§4) Primary peritoneal macrophages were isolated from young male Balb/c (7-8 wks, 20-25 g) at 3 days after intraperitoneal injection of 2 ml thioglycollate broth (4%) as previously described. Briefly, mice were sacrificed by CO2 asphyxiation, and the abdomen region was immediately cleaned with 70% ethanol before making a small excision to expose the abdominal wall, and to insert a catheter into viscera-free pocket to wash out peritoneal macrophages with sucrose solution (11.6%, 7.0 ml). Human blood was purchased from the New York Blood Center (Long Island City, NY, USA), and human peripheral blood mononuclear cells (HuPBMCs) were isolated by density gradient centrifugation through Ficoll (Ficoll-Paque PLUS, Pharmacia, Piscataway, NJ, USA) as previously described. Murine macrophages and human monocytes (HuBPMCs) were cultured in DMEM supplemented with 1% penicillin/streptomycin and 10% FBS or 10% human serum. When reaching 70-80% confluence, adherent cells were gently washed with, and immediately cultured in, OPTI-MEM I before stimulating with crude LPS, purified SAA, HMGB1, in the absence or presence of human TN. The intracellular and extracellular levels of HMGB1, TN, or various other cytokines/chemokines were respectively determined by Western blotting analysis, and Cytokine Antibody Arrays as previous described. […]"}, "primary human monocytes": {"test_system": "primary human monocytes", "assay": "Cytokine Antibody Array of human monocyte cultures", "type": "cell-based", "conditions": "TN 10 μg/ml, 16 h", "method": "as §4"}, "[6]": {"test_system": "murine peritoneal macrophages", "assay": "ASC release in macrophage cultures (Western blotting)", "type": "cell-based, mouse", "conditions": "16 h", "method": "as §2, §3"}, "[7]": {"conditions": "Dynasore 8.0 μM or mAb8 60 μg/ml"}},
  "data": [
    {"molecule": "O=C(N/N=C/c1ccc(O)c(O)c1)c1cc2ccccc2cc1O", "note": "[dynasore]", "values": [
      {"measurement": "HMGB1-enhanced cellular uptake of TN", "setting": "[1]; [7]", "result": "similarly attenuated"},
      {"measurement": "TN-mediated enhancement of cellular HMGB1 uptake", "setting": "[1]; [7]", "result": "prevented"},
      {"measurement": "TN/HMGB1 induced cell death", "setting": "[2]", "result": "inhibit"},
      {"measurement": "TN/HMGB1 induced ASC aggregation", "setting": "[3]", "result": "inhibit"}
    ]},
    {"molecule": "tetranectin (protein, UniProt P05452 22-202, looked up) Tetranectin: EPPTQKPKKIVNAKKDVVNTKMFEELKSRLDTLAQEVALLKEQQALQTVCLKGTKVHMKCFLAFTQTKTFHEASEDCISRGGTLGTPQTGSENDALYEYLRQSVGNEAEIWLGLNDMAAEGTWVDMTGARIAYKNWETEITAQPDGGKTENCAVLSGAANGKWFDKRCRDQLPYICQFGIV", "values": [
      {"measurement": "estimated equilibrium disassociation constant (KD) between TN and HMGB1", "setting": "HMGB1", "result": "1.21 to 2.88", "unit": "nM"},
      {"measurement": "sepsis-induced injury in the liver", "setting": "[4]; ALT and AST at 28 h", "result": "marked attenuation"},
      {"measurement": "sepsis-induced injury in the lung", "setting": "[4]; analysis at 28 h", "result": "marked attenuation"},
      {"measurement": "LPS- and SAA-induced HMGB1 release", "setting": "[5]", "result": "dose-dependently inhibited"},
      {"measurement": "LPS- and SAA-induced HMGB1 release", "setting": "human blood monocytes", "result": "dose-dependently inhibited"},
      {"measurement": "LPS-, SAA-, or HMGB1-induced release of other cytokines and chemokines", "setting": "macrophage cultures", "result": "did not inhibit"},
      {"measurement": "release of ENA-78 (CXCL5, LIX)", "setting": "primary human monocytes", "result": "reproducibly and specifically induced the release"},
      {"measurement": "release of GRO (CXCL1 or KC)", "setting": "primary human monocytes", "result": "reproducibly and specifically induced the release"},
      {"measurement": "HMGB1 cellular uptake", "setting": "[1]; TN at physiological concentrations", "result": "markedly enhanced"},
      {"measurement": "ASC release, added individually", "setting": "[6]", "result": "weakly induced"},
      {"measurement": "ASC release, co-addition with HMGB1", "setting": "[6]", "result": "synergistic enhancement"}
    ]}
  ]
}
